SPOT signal as a fraction of Bim BH3's signal on the same receptor and array data for 20 molecules are collected here from article PMC4072508, “Genome-Wide Prediction and Validation of Peptides That Bind Human Prosurvival Bcl-2 Proteins” (PLoS Computational Biology, 2014).

The assay concerns the target T1, Mcl-1, Q07820.
T1 chain: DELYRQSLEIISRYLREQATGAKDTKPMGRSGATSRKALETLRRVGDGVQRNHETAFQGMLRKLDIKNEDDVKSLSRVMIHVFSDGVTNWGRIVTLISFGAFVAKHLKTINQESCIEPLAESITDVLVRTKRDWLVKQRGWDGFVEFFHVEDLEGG
The assay can be described thus: peptide SPOT array, c-Myc-tagged receptor at 1 uM or 100 nM, anti-c-Myc-Cy3.

B1: GCN1L1 (peptide)
chain: EEVFQSLSKILDVASLEVLNEVNRRS
For the molecule B1, the SPOT signal as a fraction of Bim BH3's signal on the same receptor and array was found to be 0.14.

B2: STX6 (peptide)
chain: LELVSGSIGVLKNMSQRIGGELEEQA
The molecule B2 displayed an SPOT signal as a fraction of Bim BH3's signal on the same receptor and array of 0.02.

B3: LPXN (peptide)
chain: HPEHFVCAFCLTQLSKGIFREQNDKT
On to B3, for which the SPOT signal as a fraction of Bim BH3's signal on the same receptor and array stood at 0.03.

B4: PCDHB8 (peptide)
chain: TGVNGEISYSLFQASDEISKTFKVDF
B4 returned an SPOT signal as a fraction of Bim BH3's signal on the same receptor and array of 0.02.

B5: PGS1 (peptide)
chain: LPGRPGLAALLGRLSDRLGRNRDRQR
B5 displayed an SPOT signal as a fraction of Bim BH3's signal on the same receptor and array of 0.24.

B6: KIF5B (peptide)
chain: KRAAEMMASLLKDLAEIGIAVGNNDV
The molecule B6 showed an SPOT signal as a fraction of Bim BH3's signal on the same receptor and array of 0.02.

B7: PGLS (peptide)
chain: QPHTGKLCWFLDEAAARLLTVPFEKH
For the molecule B7, the SPOT signal as a fraction of Bim BH3's signal on the same receptor and array was found to be 0.02.

B8: CHD1 (peptide)
chain: PFNKEELSAILKFGAEELFKEPEGEE
With B8, the SPOT signal as a fraction of Bim BH3's signal on the same receptor and array worked out at 0.02.

B9: PMPCA (peptide)
chain: AKYLSGIAHFLEKLAFSSTARFDSKD
As to B9, the SPOT signal as a fraction of Bim BH3's signal on the same receptor and array stood at 0.06.

B10: BAD (peptide)
chain: LWAAQRYGRELRRMSDEFVDSFKKGL
Turning to B10, the SPOT signal as a fraction of Bim BH3's signal on the same receptor and array was 0.53.

B11: WNT9B (peptide)
chain: CRREPGLAETLRDAAHLGLLECQFQF
Regarding B11, the SPOT signal as a fraction of Bim BH3's signal on the same receptor and array was 0.02.

B12: GRIK4 (peptide)
chain: DRYEGFCVDMLKELAEILRFNYKIRL
For the molecule B12, the SPOT signal as a fraction of Bim BH3's signal on the same receptor and array stood at 0.03.

B13: HEATR7B2 (peptide)
chain: ERMKGTFCIALEKFSKAIYKYVNHWR
On to B13, for which the SPOT signal as a fraction of Bim BH3's signal on the same receptor and array was 0.37.

B14: WWC1 (peptide)
chain: PASTDAVSALLEQTAVELEKRQEGRS
The molecule B14 yielded an SPOT signal as a fraction of Bim BH3's signal on the same receptor and array of 0.01.

B15: RSC1A1 (peptide)
chain: SSEEITVAGNLEKSAERSTQGLKFHL
For B15, the SPOT signal as a fraction of Bim BH3's signal on the same receptor and array worked out at 0.01.

B16: SRGAP3 (peptide)
chain: AEIELEYSRSLEKLAERFSSKIRSSR
B16 yielded an SPOT signal as a fraction of Bim BH3's signal on the same receptor and array of 0.07.

B17: BCL2 (peptide)
chain: SPVPPVVHLTLRQAGDDFSRRYRRDF
For B17, the SPOT signal as a fraction of Bim BH3's signal on the same receptor and array came to 0.26.

B18: PMAIP1 (peptide)
chain: AELEVECATQLRRFGDKLNFRQKLLN
In turn, B18 came in with an SPOT signal as a fraction of Bim BH3's signal on the same receptor and array of 0.85.

B19: TXNDC11 (peptide)
chain: TRELQELARKLQELLDASENLLTENT
B19 returned an SPOT signal as a fraction of Bim BH3's signal on the same receptor and array of 0.01.

B20: ZBED3 (peptide)
chain: AAPEGDWARLLEQMGALAVRGSRRER
Consider B20, for which the SPOT signal as a fraction of Bim BH3's signal on the same receptor and array came out at 0.11.
